Blank lines part the entries; values can stand above or below the binder they belong to. Starred links: 1 amine or outer side, 2 acyl side, 3 side chain; linkers in the order of their positions; H or OH if unused. Positions of bridges follow the written chain, without caps; N, C: chain ends. Non-standard residues stand in square brackets, D forms with d. Primed or numbered codes have the meaning given here. trans‑Pro(4-(4-fluorobenzyl)) = trans-4-(4-fluorobenzyl)-L-proline, O=C([C@@H]1C[C@@H](Cc2ccc(F)cc2)CN1[*:1])[*:2]; Pro(cis-4-Ph) = O=C(O)[C@@H]1C[C@H](c2ccccc2)CN1; NMeF = CN[C@@H](Cc1ccccc1)C(=O)O; PEG12′ = C-terminal PEG12 spacer; NMeNle = CCCC[C@H](NC)C(=O)O; NMeA = CN[C@@H](C)C(=O)O; Dab = NCC[C@H](N)C(=O)O; Sar = CNCC(=O)O
Tests used:
hPDL1(19-239)-TVMV-His [1] = target: T1, hPDL1(19-239)-TVMV-His (human, UniProt Q9NZQ7 19-239); assay: HTRF competition, PD-1-Ig (20 nM) binding to human PD-L1-His (10 nM)
T1 construct: The construct name says 19-239, the running text says amino acids 18-239; Expressed in HEK293T cells; also called PD-L1-His; PD-L1-TVMV-His
T1 sequence (Q9NZQ7 other isoform, or with tags, fused parts or gaps limits assumed): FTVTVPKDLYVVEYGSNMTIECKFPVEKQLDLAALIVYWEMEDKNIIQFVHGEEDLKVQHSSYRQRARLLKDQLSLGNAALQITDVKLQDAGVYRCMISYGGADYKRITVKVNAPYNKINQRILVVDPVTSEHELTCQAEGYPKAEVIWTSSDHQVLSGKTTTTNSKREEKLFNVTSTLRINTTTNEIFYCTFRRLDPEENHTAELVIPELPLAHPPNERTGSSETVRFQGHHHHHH

human PD-L1 on cells [2] = target: human PD-L1 on cells (human, UniProt Q9NZQ7 19-290); assay: cell-based or functional assay
Target sequence in this assay (Q9NZQ7 19-290): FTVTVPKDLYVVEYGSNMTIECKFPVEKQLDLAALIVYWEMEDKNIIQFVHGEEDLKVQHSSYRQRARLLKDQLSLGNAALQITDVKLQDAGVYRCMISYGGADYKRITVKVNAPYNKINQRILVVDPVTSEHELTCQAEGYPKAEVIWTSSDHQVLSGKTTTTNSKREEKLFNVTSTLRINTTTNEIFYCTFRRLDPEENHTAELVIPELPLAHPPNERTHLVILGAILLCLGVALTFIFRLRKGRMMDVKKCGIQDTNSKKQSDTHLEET

hPDL1(19-239)-TVMV-His [3] = target: T2, hPDL1(19-239)-TVMV-His (human, UniProt Q9NZQ7 19-239); assay: HTRF competition, inhibitor titrated against PD-1-Ig binding to PD-L1-His
T2 construct: The text says amino acids 18-239, the construct name says 19-239; also called PD-L1-His; PD-L1-TVMV-His
Method: (§1) All binding studies were performed in an HTRF assay buffer consisting of dPBS supplemented with 0.1% (w/v) bovine serum albumin and 0.05% (v/v) Tween-20. […] PD-L1 fusion proteins from either human, cynomologous macaques, or mouse were used. HTRF detection was achieved using europium crypate-labeled anti-Ig monoclonal antibody (1 nM final) and allophycocyanin (APC) labeled anti-His monoclonal antibody (20 nM final). Antibodies were diluted in HTRF detection buffer and 5 μl was dispensed on top of binding reaction. The reaction was allowed to equilibrate for 30 minutes and signal (665 nm/620 nm ratio) was obtained using an EnVision fluorometer. […]
T2 sequence (Q9NZQ7 other isoform, or with tags, fused parts or gaps limits assumed): as the sequence (Q9NZQ7 other isoform, or with tags, fused parts or gaps limits assumed) above

hPDL1(19-239)-TVMV-His [4] = target: T2, hPDL1(19-239)-TVMV-His; assay: as above; remark: listed apart in the source
Method: as §1
HTRF Experiments were performed essentially as outlined supra. Variant macrocyclic peptides were created as outlined herein.

human PD-L1 on cells [5] = target: T3, human PD-L1 on cells (human, UniProt Q9NZQ7 19-290); assay: cell binding assay (CBA): PE-labelled PD-1-Ig on cells over-expressing human PD-L1
T3 construct: whole, on cells; The same entry serves as PD-L1 on PBMC in the CMV recall assay; also called hPD-L1; LK35.2-hPD-L1
T3 sequence (Q9NZQ7 19-290): as the sequence (Q9NZQ7 19-290) above

human PD-L1 on cells [6] = target: T3, human PD-L1 on cells; assay: cell-based or functional assay; remark: listed apart in the source
hPDL1(19-239)-TVMV-His [7] = target: T4, hPDL1(19-239)-TVMV-His (human, UniProt Q9NZQ7 19-239); assay: HTRF competition of PD-1-Ig binding to PD-L1-His
T4 construct: The text says amino acids 18-239, the construct name says 19-239; The entry includes the TVMV site and the His tag; also called PD-L1-His; PD-L1-TVMV-His
T4 sequence (Q9NZQ7 other isoform, or with tags, fused parts or gaps limits assumed): as the sequence (Q9NZQ7 other isoform, or with tags, fused parts or gaps limits assumed) above

human PD-L1 = target: T5, human PD-L1 (human, UniProt Q9NZQ7 19-239, limits assumed); assay: cell binding assay, inhibition of human PD-L1/PD-1 binding on cells (cell format not given)
T5 construct: also called Hu PD-L1; hPD-L1
T5 sequence (Q9NZQ7 19-239 limits assumed): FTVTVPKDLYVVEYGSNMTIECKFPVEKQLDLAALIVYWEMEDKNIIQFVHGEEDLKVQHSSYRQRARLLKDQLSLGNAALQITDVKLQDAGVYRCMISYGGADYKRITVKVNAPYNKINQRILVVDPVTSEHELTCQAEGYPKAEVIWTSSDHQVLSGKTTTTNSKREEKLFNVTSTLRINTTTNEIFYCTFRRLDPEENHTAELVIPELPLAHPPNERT

IC50 (hPDL1(19-239)-TVMV-His [1]): 21 nM
Binder: {CH2CO}-F[NMeA]NPHHSWRW[NMeNle][NMeNle]LCG-{PEG12′-NH2} (thioether N-14) [Compound No. 117]

IFNγ secretion by CMV-specific T cells (ELISA), EC50 (human PD-L1 on cells [2]): > 10000 nM
Binder: {CH2CO}-FLIVIRDRVFRCG-NH2 (thioether N-12)

IC50 (hPDL1(19-239)-TVMV-His [3]): 153 nM | IC50 (hPDL1(19-239)-TVMV-His [4]): 153 nM
B1: Compound No. 99 (peptide)
peptide: {CH2CO}-FLIVIRDRVFRCG-NH2
modifications: thioether N-12
notes: Macrocyclic peptide; parent of the Formula III series

IC50 (hPDL1(19-239)-TVMV-His [4]): 540 nM
B2: Compound No. 111 (peptide)
peptide: FLIVIRDRFFRCG
HELM: PEPTIDE1{[O=C(C[*:3])[*:2]].F.L.I.V.I.R.D.R.F.F.R.C.G.[am]}$PEPTIDE1,PEPTIDE1,1:R3-13:R3$$$V2.0
SMILES: CC[C@H](C)[C@@H]1NC(=O)[C@H](CC(C)C)NC(=O)[C@H](Cc2ccccc2)NC(=O)CSC[C@@H](C(=O)NCC(N)=O)NC(=O)[C@H](CCCNC(=N)N)NC(=O)[C@H](Cc2ccccc2)NC(=O)[C@H](Cc2ccccc2)NC(=O)[C@H](CCCNC(=N)N)NC(=O)[C@H](CC(=O)O)NC(=O)[C@H](CCCNC(=N)N)NC(=O)[C@H]([C@@H](C)CC)NC(=O)[C@H](C(C)C)NC1=O
notes: Macrocyclic variant of Compound No. 99

IC50 (human PD-L1 on cells [5]): 2.69 nM | CMV Recall EC50; IFNγ secretion by CMV-specific T cells (human PD-L1 on cells [6]): 0.0384 µM | IC50 (hPDL1(19-239)-TVMV-His [7]): 9.87 nM
B3: Example 13011 (peptide)
peptide: {CH2CO}-Y[NMeA]NPHE[trans‑Pro(4-(4-fluorobenzyl))]W[Dab]W[NMeNle][NMeNle][Dab]CG-NH2
modifications: thioether N-14
SMILES: CCCC[C@H]1C(=O)N(C)[C@@H](CCCC)C(=O)N[C@@H](CCN)C(=O)N[C@H](C(=O)NCC(N)=O)CSCC(=O)N[C@@H](Cc2ccc(O)cc2)C(=O)N(C)[C@@H](C)C(=O)N[C@@H](CC(N)=O)C(=O)N2CCC[C@H]2C(=O)N[C@@H](Cc2c[nH]cn2)C(=O)N[C@@H](CCC(=O)O)C(=O)N2C[C@H](Cc3ccc(F)cc3)C[C@H]2C(=O)N[C@@H](Cc2c[nH]c3ccccc23)C(=O)N[C@@H](CCN)C(=O)N[C@@H](Cc2c[nH]c3ccccc23)C(=O)N1C
notes: X marks Dab and Nle

IC50 (hPDL1(19-239)-TVMV-His [1]): 3 nM
Binder: {CH2CO}-F[NMeF][NMeNle][Sar]DV[NMeF]Y[Sar]WYLCG-{PEG12′-NH2} (thioether N-13) [Compound No. 118]

IC50 (hPDL1(19-239)-TVMV-His [3]): 13 nM
B4: Compound No. 3 (peptide)
peptide: {CH2CO}-F[NMeA]NPHRSWRW[NMeNle][NMeNle]LCG-NH2
modifications: thioether N-14
SMILES: CCCC[C@H]1C(=O)N(C)[C@@H](CCCC)C(=O)N[C@@H](CC(C)C)C(=O)N[C@H](C(=O)NCC(N)=O)CSCC(=O)N[C@@H](Cc2ccccc2)C(=O)N(C)[C@@H](C)C(=O)N[C@@H](CC(N)=O)C(=O)N2CCC[C@H]2C(=O)N[C@@H](Cc2c[nH]cn2)C(=O)N[C@@H](CCCNC(=N)N)C(=O)N[C@@H](CO)C(=O)N[C@@H](Cc2c[nH]c3ccccc23)C(=O)N[C@@H](CCCNC(=N)N)C(=O)N[C@@H](Cc2c[nH]c3ccccc23)C(=O)N1C
notes: Macrocyclic peptide; X stands for norleucine

IC50 (hPDL1(19-239)-TVMV-His [3]): 15 nM
B5: Compound No. 4 (peptide)
peptide: {CH2CO}-F[NMeA]NPLRSWRW[NMeNle][NMeNle]LCG-NH2
modifications: thioether N-14
SMILES: CCCC[C@H]1C(=O)N(C)[C@@H](CCCC)C(=O)N[C@@H](CC(C)C)C(=O)N[C@H](C(=O)NCC(N)=O)CSCC(=O)N[C@@H](Cc2ccccc2)C(=O)N(C)[C@@H](C)C(=O)N[C@@H](CC(N)=O)C(=O)N2CCC[C@H]2C(=O)N[C@@H](CC(C)C)C(=O)N[C@@H](CCCNC(=N)N)C(=O)N[C@@H](CO)C(=O)N[C@@H](Cc2c[nH]c3ccccc23)C(=O)N[C@@H](CCCNC(=N)N)C(=O)N[C@@H](Cc2c[nH]c3ccccc23)C(=O)N1C
notes: as for B4

IC50 (human PD-L1 on cells [5]): 1.47 nM | CMV Recall EC50; IFNγ secretion by CMV-specific T cells (human PD-L1 on cells [6]): 0.0272 µM | IC50 (hPDL1(19-239)-TVMV-His [7]): 4.11 nM
B6: Example 13006 (peptide)
peptide: {CH2CO}-Y[NMeA]DPHK[Pro(cis-4-Ph)]WKW[NMeNle][NMeNle]ECG-NH2
modifications: thioether N-14
SMILES: CCCC[C@H]1C(=O)N(C)[C@@H](CCCC)C(=O)N[C@@H](CCC(=O)O)C(=O)N[C@H](C(=O)NCC(N)=O)CSCC(=O)N[C@@H](Cc2ccc(O)cc2)C(=O)N(C)[C@@H](C)C(=O)N[C@@H](CC(=O)O)C(=O)N2CCC[C@H]2C(=O)N[C@@H](Cc2c[nH]cn2)C(=O)N[C@@H](CCCCN)C(=O)N2C[C@@H](c3ccccc3)C[C@H]2C(=O)N[C@@H](Cc2c[nH]c3ccccc23)C(=O)N[C@@H](CCCCN)C(=O)N[C@@H](Cc2c[nH]c3ccccc23)C(=O)N1C
notes: X marks Nle

IC50 (human PD-L1): 10 nM
B7: Compound No. 71 (peptide)
peptide: FFXGDVFYGWYLCG
HELM: PEPTIDE1{[O=C(C[*:3])[*:2]].F.[meF].[CCCC[C@@H](C(=O)[*:2])N(C)[*:1]].[Sar].D.V.[meF].Y.[Sar].W.Y.L.C.G.[am]}$PEPTIDE1,PEPTIDE1,1:R3-14:R3$$$V2.0
SMILES: CCCC[C@H]1C(=O)N(C)CC(=O)N[C@@H](CC(=O)O)C(=O)N[C@@H](C(C)C)C(=O)N(C)[C@@H](Cc2ccccc2)C(=O)N[C@@H](Cc2ccc(O)cc2)C(=O)N(C)CC(=O)N[C@@H](Cc2c[nH]c3ccccc23)C(=O)N[C@@H](Cc2ccc(O)cc2)C(=O)N[C@@H](CC(C)C)C(=O)N[C@H](C(=O)NCC(N)=O)CSCC(=O)N[C@@H](Cc2ccccc2)C(=O)N(C)[C@@H](Cc2ccccc2)C(=O)N1C
notes: also called Compound 71

IC50 (hPDL1(19-239)-TVMV-His [3]): 7 nM
B8: Compound No. 71 (peptide)
peptide: FFXGDVFYGWYLCG
HELM: PEPTIDE1{[O=C(C[*:3])[*:2]].F.[meF].[CCCC[C@@H](C(=O)[*:2])N(C)[*:1]].[Sar].D.V.[meF].Y.[Sar].W.Y.L.C.G.[am]}$PEPTIDE1,PEPTIDE1,1:R3-14:R3$$$V2.0
SMILES: CCCC[C@H]1C(=O)N(C)CC(=O)N[C@@H](CC(=O)O)C(=O)N[C@@H](C(C)C)C(=O)N(C)[C@@H](Cc2ccccc2)C(=O)N[C@@H](Cc2ccc(O)cc2)C(=O)N(C)CC(=O)N[C@@H](Cc2c[nH]c3ccccc23)C(=O)N[C@@H](Cc2ccc(O)cc2)C(=O)N[C@@H](CC(C)C)C(=O)N[C@H](C(=O)NCC(N)=O)CSCC(=O)N[C@@H](Cc2ccccc2)C(=O)N(C)[C@@H](Cc2ccccc2)C(=O)N1C
notes: as for B4

IC50 (hPDL1(19-239)-TVMV-His [1]): 21 nM
Binder: {CH2CO}-F[NMeA]NPHL[Sar]WSW[NMeNle][NMeNle]RCG-{PEG12′-NH2} (thioether N-14) [Compound No. 116]

IC50 (human PD-L1): 1400 nM
Binder: {CH2CO}-FLIVIRDRVFRCG-NH2 (thioether N-12, also called Compound 99)

IFNγ secretion by CMV-specific T cells (ELISA), EC50 (human PD-L1 on cells [2]): 400 nM
B9: Compound No. 2 (peptide)
peptide: {CH2CO}-F[NMeA]NPHHSWRW[NMeNle][NMeNle]LCG-NH2
modifications: thioether N-14
SMILES: CCCC[C@H]1C(=O)N(C)[C@@H](CCCC)C(=O)N[C@@H](CC(C)C)C(=O)N[C@H](C(=O)NCC(N)=O)CSCC(=O)N[C@@H](Cc2ccccc2)C(=O)N(C)[C@@H](C)C(=O)N[C@@H](CC(N)=O)C(=O)N2CCC[C@H]2C(=O)N[C@@H](Cc2c[nH]cn2)C(=O)N[C@@H](Cc2c[nH]cn2)C(=O)N[C@@H](CO)C(=O)N[C@@H](Cc2c[nH]c3ccccc23)C(=O)N[C@@H](CCCNC(=N)N)C(=O)N[C@@H](Cc2c[nH]c3ccccc23)C(=O)N1C

Source: patent publication US20140294898A1 (published 2014)
